Data on four substances can be found in patent publication US20180244754A1.

This assay deals with human GH receptor (hGHR) (human) (UniProt P10912). In words: cell-based or functional assay.
UniProt P10912, sequence (P10912 19-638): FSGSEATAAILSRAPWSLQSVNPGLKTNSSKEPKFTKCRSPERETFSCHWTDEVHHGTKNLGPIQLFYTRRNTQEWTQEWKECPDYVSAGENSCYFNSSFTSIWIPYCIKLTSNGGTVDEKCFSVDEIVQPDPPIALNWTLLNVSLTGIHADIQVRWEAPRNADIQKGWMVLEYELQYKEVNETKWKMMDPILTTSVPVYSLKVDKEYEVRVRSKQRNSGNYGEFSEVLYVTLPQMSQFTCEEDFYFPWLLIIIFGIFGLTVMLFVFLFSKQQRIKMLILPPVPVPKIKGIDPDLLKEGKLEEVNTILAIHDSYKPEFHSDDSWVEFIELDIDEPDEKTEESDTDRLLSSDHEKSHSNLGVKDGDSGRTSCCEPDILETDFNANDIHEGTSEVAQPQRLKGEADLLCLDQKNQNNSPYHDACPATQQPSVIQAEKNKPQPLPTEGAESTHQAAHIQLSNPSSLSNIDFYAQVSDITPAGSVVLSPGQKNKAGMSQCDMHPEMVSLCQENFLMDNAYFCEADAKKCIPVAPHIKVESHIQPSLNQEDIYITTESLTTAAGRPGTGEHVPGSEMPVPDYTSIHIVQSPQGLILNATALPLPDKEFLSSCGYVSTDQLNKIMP

The substance 22KhGH-HSA (ligand) registered an EC50 (nM), cell growth activity using BaF3/hGHR cells (absorbance at 490 nM) of 0.878 nM and an EC50 of 22KhGH-HSA relative to EC50 of HSA-22KhGH, cell growth activity using BaF3/hGHR cells of 6.4 times.

22KhGH-mHSA (ligand) displayed an EC50 (nM), cell growth activity using BaF3/hGHR cells (absorbance at 490 nM) of 1.2 nM and an EC50 of 22KhGH-mHSA relative to EC50 of mHSA-22KhGH, cell growth activity using BaF3/hGHR cells of 7.8 times.

The substance HSA-22KhGH (ligand) came in with an EC50 (nM), cell growth activity using BaF3/hGHR cells (absorbance at 490 nM) of 0.138 nM.

Regarding mHSA-22KhGH (ligand), the EC50 (nM), cell growth activity using BaF3/hGHR cells (absorbance at 490 nM) stood at 0.153 nM.
